From a protein production outcome set (Wang et al. 2014)

Assay: label from the status in PepcDB records

| Sequence | protein production |
| --- | --- |
| MLKAYRYRIYPTKAQEEFFEKAFGCCRFVWNKMLEEKLEALKQGKKVPRITPARYKKEYPFLREVDSLALANVQMKQEKAFKDFFKNPKHFGIPKFKRKKDKQSYTTNNQQTKSGNETIRVDFEKGLLYLPKVKSGIKAVFHREFEGKIKSATVVKTKAGRYYVSILVDVQDPRNKEVNRIFENEITKRENFICGIDTGLISFVTIANDTGISKIEYPKYLIKAEKRLKRLQRQLSRKKEGSKNWEKARERLAKEYEYVKNSREDFLHKISKTIIDENQVVVVESLNVKGLSRTRLSKHILDSSWSKFLRYLKYKADWYGRKVIEADRSFPSSKMCSRCGYINKELKLKDRVWKCPKCKAVHDRDENAAKNLKNYGIAYIRNQ | failed |
| MNGRRTIGEDGLVFGLVVIVALVAAVVVGTVLGHRYRVGPPVLLILSGSLLGLIPRFGDVQIDGEVVLLLFLPAILYWESMNTSFREIRWNLRVIVMFSIGLVIATAVAVSWTARALGMESHAAAVLGAVLSPTDAAAVAGLAKRLPRRALTVLRGESLINDGTALVLFAVTVAVAEGAAGIGPAALVGRFVVSYLGGIMAGLLVGGLVTLLRRRIDAPLEEGALSLLTPFAAFLLAQSLKCSGVVAVLVSALVLTYVGPTVIRARSRLQAHAFWDIATFLINGSLWVFVGVQIPGAIDHIAGEDGGLPRATVLALAVTGVVIATRIAWVQATTVLGHTVDRVLKKPTRHVGFRQRCVTSWAGFRGAVSLAAALAVPMTTNSGAPFPDRNLIIFVVSVVILVTVLVQGTSLPTVVRWARMPEDVAHANELQLARTRSAQAALDALPTVADELGVAPDLVKHLEKEYEERAVLVMADGADSATSDLAERNDLVRRVRLGVLQHQRQAVTTLRNQNLIDDIVLRELQAAMDLEEVQLLDPADAE | failed |
| SRPRLSQLSVTDVTTSSLRLNWEAPPGAFDSFLLRFGVPSPSTLEPHPRPLLQRELMVPGTRHSAVLRDLRSGTLYSLTLYGLRGPHKADSIQGTARTL | not failed |
| MISIVIPLYNQVAYTQLCVQSLRRAGLNGVDVLLIDNGSTDGTAEYLKSCSDLRVIRNRENLGCAGAWNQGVRETTSEWVMILNNDVVVSPGWLDGLLEAAGKEGLDVVSPAIREGEYNYDIEGYSQEFVGRMGDVVRRGVADGICFMVRRRVFEVVGLFDENFRIGQFEDADFFRRARNAGFRLGTTGRSFIHHFGSVTQDAIRKNRPERPYVAENRAYFREKWQLTRGRRLIERWRRKLREFAWQKCERMFHGHTLKEKWLGGRLRYYLEHHHHHH | failed |
| MVSLPRLASLLTTRLATLKPALKPATHLASLGAQVIAELVPGIRMSPNRRRILPANMGAGFIGAEIAMWWALSPSLLPKPWWVTAANLAVLQAVGHAAATGIHSILPRTNRRVSRKIYNATHIATGAITLTTTVVGLIRHRTQIRLIGQKNFGPKETIAGISVGTLGYGALLITGELTQHSINEVKLLIERFLPPWISFIAAVSVITLTTLTLADRVLLRRILHNSAIQAAHLNRMVFPGTEQPWEPERSGSPWSYEKWGAVGSQGRAVLSGGPRKDDIITVTRLSDTETHEPIRIFIGMVPGRSLSDQVDLVIHEMRRTGALRRDHIVINNSTGTGWITDWSAHTFEFLTGGNCVTISMQYSYLPSALSWYKDNDGPINAARMLIDAVLHELDQLPTGSRPKLFLAGESLGAYGLAEVWGDVEKLLGTADGVLLSGAPRFSDAMNALRTRRDASSSERLPVIDSGRHIRFAGEPEHLDMPATWQFPRMIVAQHASDPIVWWNAELFIRRPEWLKTPKQDHQDVFPRLRWMPFVTGWQVALDLFTSTSVPGGHGHNYHEEFIDYWAALLDREVTPELRHSIAYWIRANHIKR | failed |
| MATSSTQLLLSSSSLFHSQITKKPFLLPATKIGVWRPKKSLSLSCRPSASVSAASSAVDVNESVTSEKPTKTLPFRIGHGFDLHRLEPGYPLIIGGIVIPHDRGCEAHSDGDVLLHCVVDAILGALGLPDIGQIFPDSDPKWKGAASSVFIKEAVRFRRLP | failed |
| MQARDIMTTTVVSISPDVSVRHAVAMMLQNHVSGLPVVDDHGRVCGMVTEGDLLLRREVRYAPRPARAPELISEIDLERYIGSNGWCVADVMSQDVIVARPDSEVSDIAESLQVHRIKRLPIVEDERLVGIVSRRDILRVIAEAPTTILPRGDEAIRLAVRTRLRSDLGLTPQKVHVSVRNGQVTVDGQVESELKRRAIKVLVEGLGGIAGYKDGLLVSPAHIQD | failed |
| MKFAIITDVHGNFDALQTVLDDIDNREDIDKIYNLGDNIGIGHETNKVLDTIFDRDDMEIIAGNHDEAVMSLVNNTPYPEDLKDKFYEHHQWIESHMDEDYYDQLNLLPRYIEKTICGKKLLFIHYEIENQKLETGIEGQPFSPITENSKENIIELFKDKDADLIAFGHNHQMHLYDDNKTIYFNPGAVGLNNGANAVYGIVTINDNEFSIERIKLPYDNEEYLQGFDEKQVPAKQLIFEHFL | failed |
